The results in this text go back to the supplement of paper PMC9170038.

In this series the test system is MS2 coat protein. As to the kind of experiment: apparent KD of MS2 coat protein; designed switch direction (-1 OFF switch, 1 ON switch): -1; higher = weaker reporter binding. In a few lines: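 Each step of the titration lasted 0.8–1.5 h at the lowest concentration and 10–20 min at the highest. The protein, SNAP-549-labelled MS2 coat protein, went from 0.7 or 1.5 nM doubling to 3 µM over RNA switches transcribed on Illumina chips by stalled E. coli RNA polymerase. Normalised cluster fluorescence was curve-fitted, and the per-design median over clusters is given as apparent KD.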

Setting [1] is: Eterna round: R95, input ligand: microRNA oligo, concentration not stated.
[2] abbreviates: Eterna round: R95, input ligand: FMN 200 uM.
The mark [3] stands for this setting: Eterna round: R95, input ligand: none.
Setting [4] is: input ligand: microRNA oligo, concentration not stated.

Consider “UUUUAACAUGAGGAUCACCCAUGUGAGGAUAUCGAAAUUUAUAUUAAUAUUAUUUUUACGAGAAGGCACAUUUU [JMF 50] (puzzle: Exclusion 1)”, for which the “apparent KD of MS2 coat protein” value under setting [1] was 99.2 nM.

For “GAUUAUGCGAGCUUUAGGGACAUGAGGAUCACCCAUGUUCGUCUUAUUAGUCUAAAUGCACUGACAUACCUAAAUCU [JMF 73] (puzzle: Sensor v3, turn-off variant 1)”, the “apparent KD of MS2 coat protein” value runs as follows: under setting [2], 12.9 nM; under setting [1], 15.3 nM; under setting [3], 13.9 nM.

As to “CUAGAUCUUCGGAUCUAGGACAUGAGGAUCACCCAUGUCACGAGCAGAUCUUCAUGCAAGCUUUUUGCUCGUCUUAU [Sensor v3 - Turn-off variant 1 - 37] (Eterna round: R96, puzzle: Sensor v3, turn-off variant 1)”, the “apparent KD of MS2 coat protein” value runs as follows: (input ligand: FMN 200 uM) 27 nM; under setting [4], 339 nM; (input ligand: none) 29.2 nM.

On to “AUAUACGGAGGAUAUACUUGAGGAUCACCCAAGUGGAGUCCCGUUUGGGCGGUAAAUAGUAGAAGGCCGUCCCA [jl-ex3-4.44 ViennaUCT mod] (Eterna round: R97, puzzle: Exclusion 3)”, for which the “apparent KD of MS2 coat protein” value (input ligand: FMN 200 uM) was 16.8 nM and the “apparent KD of MS2 coat protein” value (input ligand: none) was 12.3 nM.

“ACAGAGCAAGGAUAUGCCGGGCGUGACAUGAGGAUCACCCAUGUGAUGCCGGUACGUUUAGCAGAAGGUGCAGGCA [EX5 C.2] (Eterna round: R97, puzzle: Exclusion 5)”: the “apparent KD of MS2 coat protein” value amounted to 19 nM (input ligand: FMN 200 uM) and 14.8 nM (input ligand: none).

For “AUCAUGUAAGGAUAUCUUACAUGUGACGAAAGUCACAGUUAAGAGAAGGUACAUGAGGAUCACCCAUGUAUAAC [Ex4-3: 36] (puzzle: Exclusion 4)”, the “apparent KD of MS2 coat protein” value under setting [1] was 26.6 nM.

With “CCUUGACAUGAGGAUCACCCAUGUGAGGAUAUGAUGCGAUCGUCGAAAGACGAUAGCAUCAGAAGGCACAUAUG [Fiskers Ex 1 - 8] (puzzle: Exclusion 1)”, the “apparent KD of MS2 coat protein” value under setting [1] was determined as 25.2 nM.

In the case of “AUUAAGUGAGGAUAUACAAGAUCGCUUACCGCCAAAGGCGGACAUGAGGAUCACCCAUGUAGAAGGCACAAAUU [Vesoanor] (puzzle: Exclusion 2)”, the “apparent KD of MS2 coat protein” value under setting [1] was 40.9 nM.

On to “GUGGUACAUGAGGAUCACCCAUGUCAGGAUAUCGUGUGUUUUUUUUCGGCCGCGCGUGCGAGAAGGGACGUCUU (puzzle: Exclusion 1)”, for which the “apparent KD of MS2 coat protein” value under setting [1] is 17.3 nM.

With “GAUUAUGCGAGCUUUAGGGACAUGAGGAUCACCCAUGUUCGUCUUAUUAAUCUAGGUACACUGACAUACCUAAAUCU [JMF 64] (puzzle: Sensor v3, turn-off variant 1)”, the “apparent KD of MS2 coat protein” value reads like this: under setting [2], 21.3 nM; under setting [1], 30.5 nM; under setting [3], 21 nM.

Consider “GCCAGAGCAGGAUAUCUAUAUUAUCACAUGAGGAUCACCCAUGUCCAGCGAAAGCUGGAGGGAGAAGGGCUCUGGC [Fiskers Ex 5 - 26] (puzzle: Exclusion 5)”, for which the “apparent KD of MS2 coat protein” value by setting is: under setting [2], 55.7 nM; under setting [1], 76.7 nM; under setting [3], 74.5 nM.

“UUUUUGUCAGGAUAUACGUAGUAGAACAAUAGUACUACUACGUAGAAGGGACAUGAGGAUCACCCAUGUUCCUC [Fiskers Ex 4 Super stable 44 mod 16] (puzzle: Exclusion 4)”: the “apparent KD of MS2 coat protein” value under setting [1] was 16 nM.

Regarding “ACAAGCUUUUUGCAUCAAGCAUUAAAGUCUGUGAUCGUAACAUGAGGAUCACCCAUGUAAGUUUUAUGUCGUCUUAU [JR_SV3TOV2_Sub097] (puzzle: Sensor v3, turn-off variant 2)”, the “apparent KD of MS2 coat protein” value runs as follows: under setting [2], 39.7 nM; under setting [1], 48.3 nM; under setting [3], 41.1 nM.

As to “AUACUCGUUGUGAGGAUAUCGUUUUCGUCACGGAUCGAGAAGGCACAUGAGGAUCACCCAUGUUUGACGUGAAU [JR_BMOE4_Sub092] (puzzle: Brourd's mod of Exclusion 4)”, under setting [1], the “apparent KD of MS2 coat protein” value was 15.4 nM.

As to “CUAGUAUAUCAGGAUAUGAUUUUAUAUAGUUGAUCAGAAGGGAUAACAUGAGGAUCACCCAUGUUAAGGAGUGA [JR_Ex6_Sub042] (Eterna round: R97, puzzle: Exclusion 6)”, the “apparent KD of MS2 coat protein” value came to 99.2 nM (input ligand: FMN 200 uM) and 38.7 nM (input ligand: none).

“GAUCGACAUGAGGAUCACCCAUGUCAGGAUAUCGUCACUGGAGCCUCGGCUCCAGUGACGAGAAGGGAUAUAAU [E1/16-A2] (Eterna round: R97, puzzle: Exclusion 1)”: the “apparent KD of MS2 coat protein” value was 31.6 nM (input ligand: FMN 200 uM) and 32 nM (input ligand: none).

“GAGGUACAUGAGGAUCACCCAUGUGAGGAUAUAGGUAGAGAUUGAGAGAGGUGGAGGACUAGAAGGCACAGUGG [JR_Exclu1_Sub040] (puzzle: Exclusion 1)”: the “apparent KD of MS2 coat protein” value runs as follows: under setting [2], 59.6 nM; under setting [1], 46 nM; under setting [3], 60.3 nM.

Consider “UGCUGAGUUGACAGUGGUAACAUGAGGAUCACCCAUGUAUGUUUGUGCUUAAGCGGGUUGUUUCUUGUUCGUCUCUC [Eternabot (L2) Solution 5] (Eterna round: R97, puzzle: Sensor, turn-off variant 1)”, for which the “apparent KD of MS2 coat protein” value (input ligand: FMN 200 uM) worked out at 262 nM and the “apparent KD of MS2 coat protein” value (input ligand: none) is 349 nM.

Turning to “UCACGGGACUGAGGAUAUACAUUUAUUAUUUUAGUAGAAGGCAGAAAGUUAGUUUUUUCACUAUACAUGAGGAUCACCCAUGUU [JR_ExcNG1_Sub085] (Eterna round: R96, puzzle: Exclusion NG 1)”, the “apparent KD of MS2 coat protein” value (input ligand: FMN 200 uM) turned out to be 21.2 nM, the “apparent KD of MS2 coat protein” value under setting [4] is 20.4 nM and the “apparent KD of MS2 coat protein” value (input ligand: none) stood at 29.1 nM.

With “GGUUGACAUGAGGAUCACCCAUGUGAGGAUAUGCGAGAGAAAAAAGUGAGGAAGAAAAGCAGAAGGCGCUGUCG [salish99-ex1_r3_003] (puzzle: Exclusion 1)”, the “apparent KD of MS2 coat protein” value by setting is: under setting [2], 29.8 nM; under setting [1], 22.4 nM; under setting [3], 45.5 nM.

With “AAGAAACAUGAGGAUCACCCAUGUGAGGAUAUGUAAAAUAAAAGAAAAUAAAGAAUAAACAGAAGGCACAAAGG [Mat - Mod of Hog D23] (puzzle: Exclusion 1)”, the “apparent KD of MS2 coat protein” value reads like this: under setting [2], 48 nM; under setting [1], 46.5 nM; under setting [3], 43.5 nM.

With “UACACGGUAGGAUAUACGUAGAUGCAGGUUCGUGUGGUGCUACAUGAGGAUCACCCAUGUAGAAGGGCCAACGU [Mod 6 R3 JL-ex2-2.29 - Jieux - Exclusion 2] (Eterna round: R97, puzzle: Exclusion 2)”, the “apparent KD of MS2 coat protein” value turned out to be 15.1 nM (input ligand: FMN 200 uM) and 13.1 nM (input ligand: none).

Turning to “AGCAUGCUAGGAUAUACGGGACAUUAGGGUUCGUUGUGUGGACAUGAGGAUCACCCAUGUAGAAGGAGCGUGCA [Mat - Exclusion 2 - Mod of Hyphema - D91] (puzzle: Exclusion 2)”, the “apparent KD of MS2 coat protein” value under setting [1] amounted to 73.1 nM.

Consider “UUUUUCGAACAAGCUACGUACAUGAGGAUCACCCAUGUUGGUAGAUUUGAGUAGGUUUGGAUGGAAGCUCGUCUUAU [JR_SV3TOV1_Sub083] (puzzle: Sensor v3, turn-off variant 1)”, for which the “apparent KD of MS2 coat protein” value is, setting by setting: under setting [2], 19.2 nM; under setting [1], 44.5 nM; under setting [3], 21.4 nM.

Take “AGUUGGCGAGGAUAUACAUGAGGAUCACCCAUGUGAUAUUAAAGUGAGGAAAUGAAAAGUAGAAGGCGCUGACA [Mod of Mat 24 - Jieux - Exclusion 3] (Eterna round: R97, puzzle: Exclusion 3)”: the “apparent KD of MS2 coat protein” value worked out at 662 nM (input ligand: FMN 200 uM) and 47.3 nM (input ligand: none).

On to “GCACAGGCAGGAUAUACAUGAGGAUCACCCAUGUGAUCCCUUAGGUACAAAAGUACUAGUAGAAGGGCCUGUGC [Omei Ex3 Model Bachelor's Dilema v49] (Eterna round: R97, puzzle: Exclusion 3)”, for which the “apparent KD of MS2 coat protein” value is 403 nM (input ligand: FMN 200 uM) and 1040 nM (input ligand: none).

As for “CCGUGCACGCUGCGGUCCUACAUGAGGAUCACCCAUGUGGUCUGGUGGCGUGGGUCGCCGGACUUGGCUCGUCUUGU [salish99_S_TOV1_R5_020] (Eterna round: R97, puzzle: Sensor, turn-off variant 1)”, the “apparent KD of MS2 coat protein” value came out at 19.7 nM (input ligand: FMN 200 uM) and 20.5 nM (input ligand: none).

In the case of “GCCAGAGCAGGAUAUCUAUAUUAUCACAUGAGGAUCACCCAUGUCCAGCGAAAGCUGGAGGGAGAAGGGCUCUGGC [Fiskers Ex 5 - 26] (Eterna round: R96, puzzle: Exclusion 5)”, the “apparent KD of MS2 coat protein” value (input ligand: FMN 200 uM) came out at 51 nM, the “apparent KD of MS2 coat protein” value under setting [4] worked out at 60.9 nM and the “apparent KD of MS2 coat protein” value (input ligand: none) amounted to 104 nM.

“GCGGAUCUAGGAUAUACAUGAGGAUCACCCAUGUAAACUCUCUUGGAUGACUACUAUUGUAGAAGGAGAUAAGC [Erlabeedle] (puzzle: Exclusion 3)”: under setting [1], the “apparent KD of MS2 coat protein” value turned out to be 24.4 nM.

Take “UUCCUCACUUCUUUGUCUCACAUGAGGAUCACCCAUGUAAUAUAGGAUAUGCUUAGUAUUUUUAUGCAGAAGGAUAUUAGUUUU [JR_ExcNG3_Sub085] (Eterna round: R96, puzzle: Exclusion NG 3)”: the “apparent KD of MS2 coat protein” value reads like this: (input ligand: FMN 200 uM) 169 nM; under setting [4], 32.8 nM; (input ligand: none) 39.8 nM.

In the case of “CCACUGUCAGGAUAUCGUGCAUAACGUUUACAAUUUAUGUGCGAGAAGGGACAUGAGGAUCACCCAUGUAAACG [Omei Ex4 A28PK3] (Eterna round: R97, puzzle: Exclusion 4)”, the “apparent KD of MS2 coat protein” value runs as follows: (input ligand: FMN 200 uM) 227 nM; (input ligand: none) 203 nM.

On to “AUUUAAUUUAAUAAGAUCACAUGAGGAUCACCCAUGUAUAUAUAGGAUAUCAGCUCGUGUAGAGCUGAGAAGGAUAUAUACUAU [ExNG3/7-B3] (Eterna round: R96, puzzle: Exclusion NG 3)”, for which the “apparent KD of MS2 coat protein” value under setting [4] was 266 nM.
